Data on 2 proteins can be found in PMC6491548, “A novel multidomain acyl-CoA carboxylase in Saccharopolyspora erythraea provides malonyl-CoA for de novo fatty acid biosynthesis” (Scientific Reports, 2019).

Substrate in data set [1]: CC(=O)SCCNC(=O)CCNC(=O)[C@H](O)C(C)(C)COP(=O)(O)OP(=O)(O)OC[C@H]1O[C@@H](n2cnc3c(N)ncnc32)[C@H](O)[C@@H]1OP(=O)(O)O
The data set is described as follows: purified protein. In kind it is biochemical, Saccharopolyspora erythraea. The settings on record: 3 mM ATP, 5 mM MgCl2, 50 mM NaH14CO3, 100 mM Hepes pH 7.5, 30 °C.

Substrate in data set [2]: CCC(=O)SCCNC(=O)CCNC(=O)[C@H](O)C(C)(C)COP(=O)(O)OP(=O)(O)OC[C@H]1O[C@@H](n2cnc3c(N)ncnc32)[C@H](O)[C@@H]1OP(=O)(O)O
The data set is described as follows: purified protein. The settings on record: 3 mM ATP, 5 mM MgCl2, 50 mM NaH14CO3, 100 mM Hepes pH 7.5, 30 °C. In kind it is biochemical, Saccharopolyspora erythraea.

Data set [3] deals with the molecule itself. In words: SEC; Superdex 200 10/300 GL in 50 mM Hepes pH 7.5, 150 mM NaCl, 20% glycerol; calibrated with molecular mass standards; two peaks, dimer (404 kDa) and monomer (186.9 kDa). (Size exclusion chromatography separates by hydrodynamic size, large species first.)

B1: SACE_4237 (Saccharopolyspora erythraea NRRL 2338) (protein)
chain: MFSRVAIVNRGEAAMRLVHAVRELAAETGERIETVALHTDVDRTATFVREADLRYDLGPASARPYLDLGVLERALVESGADAAWVGWGFVAEDPAFAELCEKIGVTFIGPSAEAMRRLGDKIGAKLLAEEVGVPVAPWSRGEVSDLDGARRAADEIGYPLMLKATAGGGGRGIRVINSEQELTEAYERTRMEAERAFGNGAVFLERLVTGARHVEVQVIADGQGTAWALGVRDCSVQRRNQKIIEESASPVLTAEQSRELKAAAERLARAVEYRGAGTVEFLYHPGEELFAFLEVNTRLQVEHPITEATTGVDLVKAQLHVASGGRLEGEPPAELGHAVEARLNAEDPDRDFAPSPGRIVRLSLPAGPGIRVDTGVSEGDTIPADFDSMIAKIIAYGSDREQALGRLRRAMAQTTVIVAGGATNKSFVLDLLNRDEVVDGSADTGWIDRERAAGGLRSHQHSAIALAAAAVEAYEDAELAARQQFLSTAHGGRPQVRHETGRPLELKLRDESYRVLVARVGHQRYRIGIDTGSQQHTADVEIERFDSHTGQITVNGQRFRLVTDTHGPVHLVEVDGVTHRVSQDEGGVLRSPAPALVVATPVEIGEEVEAGAPVLVLESMKMETVLRAPFRARLRERMVAAGSQIETGAPLLRLEPVGDQEAAEEAEAATPVELALPVAPSARDAHERAARGLQDLRSVLLGFDVDPHDEQRVLDDYLAARAELVAAGQRPLDGEIELLQVFADLSELSRNRPAGEEAKADTRVHSPREYFHTYLQSLDVERAGLSETFQQRLLRVLGHYGVEGADRTPELEEAVFRIFLAQQRAASDAAVVTTLLGHWLTEVPPPGETRTAAGLVLEHLVAATQLRFPVVCDLARTVVFHWFAQPMLRRNRAEVYSVVRGHLRHLDAHPDAHDRAERIAEMVGTAEPLVRLLGQRIGREGTDPAPLLEVLTRRYYGNRALDGVRTTRVAGSTAVVAEYQDEHPRVVATAVDFAALPEAVRAIGELAADGDLVADIYLTWADQPEDSDAMAAELGEVLGAQGLPGQVGRITTTVAGRSGAVMHHHFTFEPASEGVAEQRLIRGLHPLIAERLQLRRWRDFDLTRLPSADEEVYLFRSVARENPSDERFVAMAQVRDLTPLRDDEGRLVALPAAEGVLTGCLDAIRKVQARVPARQRSSTNRIVIYVWPPVELTSEELRALGRRVLPTTAGAGLEEVLFLGRRRDRETGELREVAVRVGYEAGSEPRMSVGEPPTERIEPLNSYRQKVLRAAKRGTVYPYELTGMLAGGQGTFVEHDLDADGVLVPVDRPKGQNSAAIVAGVVTTPTERHPEGVTRVVLLGDPTKSLGALSEPECSRVIAALDLAERMRVPLEWFALSAGARISMDSGTENMDWVAAALKRIVHFTQDGGEINVVVAGINVGAQPYWNAEATMLMHTKGILVMTPDSAMVLTGKQSLDFSGGVSADDNFGIGGYDRVMGPNGQAQYWAPNLAAAREVLMSHYDHTYVVPGEEAPRQAATTDPRDRDICDYPHEFAGSDFTTVGEIFSATANPDRKKSFDIRTVMRALADQDHPVLERWAGMADADTAAVQDVHLGGHPVCLLGIESRPVPRHGFPPTDGPDTYTAGTLFPRSSKKAARAINAASGNRPLVVLANLSGFDGSPESMRKLQLEYGAEIGRAIVNFRGPIVFCVISRYHGGAFVVFSKALNPNMTVLAVEGSYASVIGGAPAAAVVFSGEVNDRTAKDQRVRDLEARLAEAGDADRTALTLELAETRRAVHAEKLGEVAAEFDRVHSVQRAVEVGSVDAIVRADELRPQIIEAIEKGMLPQ
notes: full-length gene, N-terminal His6 tag, E. coli BL21λ(DE3) with pCY216 (biotin ligase)
Regarding B1, in data set [1], the Km (commonly the substrate concentration at which the rate is half of its maximum) is 168 ± 1 µM; the Vmax (commonly the rate approached at saturating substrate) came out at 0.00043 µmol/min; the kcat (in general, the number of substrate molecules converted per active site and unit of time at saturation) is 0.143 ± 0.004 s⁻¹; the kcat/Km (commonly the turnover number divided by the Michaelis constant) worked out at 850 ± 30 M⁻¹ s⁻¹. For the same protein, in data set [2], the Km stood at 98 ± 1 µM, the Vmax is 0.00016 µmol/min, the kcat turned out to be 0.052 ± 0.002 s⁻¹ and the kcat/Km was 520 ± 40 M⁻¹ s⁻¹.

B2: SACE_4237 multidomain acyl-CoA carboxylase (enzyme, Saccharopolyspora erythraea, UniProt A4FHI1 1-1827, looked up)
chain: B1 chain
modifications: biotinylated (co-expressed biotin ligase from pCY216 to improve biotinylation; residue not stated)
notes: SACE_4237, multidomain acyl-CoA carboxylase (BC, BCCP, central region, CT) of Saccharopolyspora erythraea NRRL23338, about 200 kDa; gene amplified from chromosomal DNA with an NdeI site at the translational start codon and a SpeI site downstream of the stop codon; Eluted from size exclusion as a dimer (peak 1, 404 kDa) and a monomer (peak 2, 186.9 kDa); The row is of the protomer with itself; …
Regarding B2, in data set [3], the stoichiometry N (commonly a count of units in the complex or per binding partner) worked out at 2.
